# Reference: paper PMC48140 (BMC Cell Biology, 2001)
# Target: the molecule itself
# Experiment: SDS-PAGE with immunoblot
protein,measurement,value
"MP20, lens fiber cell membrane protein (natural protein, ovine, UniProt A0ACI6P5E9 1-173, looked up) MYSFMGGGLFCAWVGTILLVVATATDHWMQYRLSGAFAHQGLWRYCLGTKCYLQTESIAYWNATRAFMILSSLCATSGIIMGIVAFAQQPTFTRLSRPFSAGIMFFASTFFVLLALAIYTGVTVSFLGRRFGDWRFSWSYILGWVALLMTFFAGIFYMCAYRMHECRRLSTPR",stoichiometry N,2
